Biological target: T1, Atg7, endogenous in mouse heart, Q9D906
T1 chain: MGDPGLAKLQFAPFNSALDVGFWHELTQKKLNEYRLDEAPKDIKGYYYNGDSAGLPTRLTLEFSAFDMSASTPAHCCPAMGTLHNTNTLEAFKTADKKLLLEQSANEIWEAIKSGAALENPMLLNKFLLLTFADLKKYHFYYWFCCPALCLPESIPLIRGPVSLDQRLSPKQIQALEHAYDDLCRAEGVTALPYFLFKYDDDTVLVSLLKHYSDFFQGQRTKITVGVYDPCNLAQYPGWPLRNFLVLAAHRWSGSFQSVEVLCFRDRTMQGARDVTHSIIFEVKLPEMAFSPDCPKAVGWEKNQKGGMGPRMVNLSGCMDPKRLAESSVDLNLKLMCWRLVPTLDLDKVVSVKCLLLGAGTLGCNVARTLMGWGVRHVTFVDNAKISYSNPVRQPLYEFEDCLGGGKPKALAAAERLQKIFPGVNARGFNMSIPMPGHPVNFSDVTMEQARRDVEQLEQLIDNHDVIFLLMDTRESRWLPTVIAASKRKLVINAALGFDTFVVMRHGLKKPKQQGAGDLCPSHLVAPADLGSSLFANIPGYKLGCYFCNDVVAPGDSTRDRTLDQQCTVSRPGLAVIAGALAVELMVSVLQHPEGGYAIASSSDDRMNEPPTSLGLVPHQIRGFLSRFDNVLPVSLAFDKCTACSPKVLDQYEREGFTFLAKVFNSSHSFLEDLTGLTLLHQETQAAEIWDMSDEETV
Assay: coimmunoprecipitation with anti-FLAG-agarose beads, immunoblot for Atg7, quantified
Settings: chain shown with the change, Tg-Flag-Trx1 C35S mouse heart, n = 4, read off a plot

B1: Trx1 (wild type) C35S (protein)
chain: MVKQIESKTAFQEALDAAGDKLVVVDFSATWCGPSKMIKPFFHSLSEKYSNVIFLEVDVDDCQDVASECEVKCMPTFQFFKKGQKVGEFSGANKEKLEATINELV
response (Arbitrary unit) (ischemia for 20 minutes): 0.8 | response (Arbitrary unit) (sham operation): 0.55
